Experimental data reported in FireProtDB (doi:10.1021/bi00437a058).

Details: Bacillus amyloliquefaciens, pH 6.3, Fluorescence, whole UniProt chain shown
[1] = 25 °C, GdnHCl, MES 450 mM, reversible: yes (100%)
[2] = Thermal, MES 50 mM, reversible: yes (>85%)

B1: Ribonuclease wild type, P00648 (protein)
chain: MMKMEGIALKKRLSWISVCLLVLVSAAGMLFSTAAKTETSSHKAHTEAQVINTFDGVADYLQTYHKLPDNYITKSEAQALGWVASKGNLADVAPGKSIGGDIFSNREGKLPGKSGRTWREADINYTSGFRNSDRILYSSDWLIYKTTDHYQTFTKIR
Q: For B1, which denaturant m value [1] is on record?
A: The denaturant m value was 4.51 kcal/mol/M.

Q: And the “denaturant midpoint (higher = more stable)” value [1]?
A: Its value is 1.97 M.

Q: What about the unfolding free energy [1] of the same protein?
A: Its unfolding free energy is 8.88 kcal/mol.

Q: And the Tm [2]?
A: The Tm was 53.9 °C.

Q: And the “unfolding enthalpy (van 't Hoff)” value [2]?
A: Its value is 125 kcal/mol.
